We go through six molecules from paper PMC5667739 (PLoS Pathogens, 2017).

For orientation: Kd means the constant that tells how readily two partners part at equilibrium. High values mean lower affinity, low ones higher affinity.

Holding throughout (settings): both partners purified
Assay [1] addresses T1, GII.10 P domain (Vietnam026) (norovirus GII.10 (Vietnam026)).
T1 construct: source: E. coli, purified
The assay can be described thus: ITC. A general note: ITC needs no label: the signal is the heat of the interaction.

Assay [2] deals with T1, GII.10 P domain (Vietnam026). Kind of assay: ITC. The source holds these as a separate data set.
Assay [3] has the same target. The assay can be described thus: ELISA.

B1: Nano-27 (VHH)
VHH: QVQLQESGGGLVQPGGSLRLSCAASGTIFSRNIMGWYRQAPGKERELVASIYSDRSTWYAESVEGRFTISRDNVKNTLYLQMNSLKPEDTAMYYCRDRTLGSWGQGTQVTVSS
In assay [1], B1 showed an equilibrium dissociation constant (Kd) of 9.5 nM and a dH of -8.1 kcal/mol. Moreover, the “stoichiometry N” value in assay [2] was 1 Nanobody per P domain monomer.

B2: Nano-32 (VHH)
VHH: QVQLQESGGGLVQPGGSLRLSCAASGFTLGYYPIGWFRQAPGKGLEGVSCISGSGGSANYAASVKGRFTISRDNAKNTVYLQMNSLKPEDTAIYYCAADLSSLTTVQAMCVIPRPGFSAKAYDYWGLGTQVTVSS
Regarding B2, in assay [1], the Kd came out at 60 nM and the dH was found to be 5 kcal/mol. In addition, in assay [2], the “stoichiometry N” value is 1 Nanobody per P domain monomer.

B3: Nano-14 (VHH)
VHH: QVQLQESGGGLVQSGGSLRLSCAASRNINSMHVVGWYRQAPGNQRELVASITDDGSTDYVDSVKGRFTISRDIAENTVYLQMNSLNPEDTAVYYCKGTIVVFTTPMHYWGKGTQVTVSS
notes: also called N14; source: E. coli WK6 (pHEN6C vector), purified
In assay [1], B3 gave a dissociation constant (Kd) of 10.4 nM and a dH of -22 kcal/mol. The “stoichiometry N” value in assay [2] is 0.5 Nanobody per P domain monomer. For the same molecule, in assay [3], the “lowest Nanobody concentration that detected the antigen (direct ELISA)” value worked out at 20 ng/mL.

B4: Nano-4 (VHH)
VHH: QVQLQESGGGLVQPGGSLRLFCAASGFTFSSYAMRWYRQAPGKERELVAAITSAGGSTHYADSVKERFTISRDNAKNTMYLQMNSLKPEDTAVYYCNARRDYGDSWFTAGGGYWGQGTQVTVSS
In assay [1], B4 returned a Kd of 35 nM and a dH of -12 kcal/mol. Also, the “stoichiometry N” value in assay [2] was 1 Nanobody per P domain monomer. Also, in assay [3], the “lowest Nanobody concentration that detected the antigen (direct ELISA)” value was 20 ng/mL.

B5: Nano-26 (VHH)
VHH: QVQLQESGGGLVQPGGSLRLSCTAPRIIFFMYDVGWYRQAPEKQRELVAQINSDVSTKYADSVKGRFTISRDNAKRTVYLQMNDLKPEDAAVYYCNVRRASADYWGQGTQVTVSS
notes: also called N26; source: E. coli WK6 (pHEN6C vector), purified
In assay [1], B5 displayed a Kd of 3.2 nM and a dH of -10 kcal/mol. Moreover, the “stoichiometry N” value in assay [2] is 1 Nanobody per P domain monomer. In addition, the “lowest Nanobody concentration that detected the antigen (direct ELISA)” value in assay [3] is 20 ng/mL.

B6: Nano-42 (VHH)
VHH: QVQLQESGGGLVQPGGSLRLSCAASGSVSRTYVMGWYRQTPGNQRELVATITSVGSTNYADSLKGRFTISRENAENTVYLQMNSLKPEDTAIYYCKYIRYSPIHAPLDYWGQGTQVTVSS
In assay [1], B6 came in with a Kd of 0.809 nM and a dH of -9.84 kcal/mol. In addition, the “stoichiometry N” value in assay [2] was 1 Nanobody per P domain monomer. Further, the “lowest Nanobody concentration that detected the antigen (direct ELISA)” value in assay [3] is 20 ng/mL.
